{"source": "patent US11932683B2", "about": "“Cellular factors involved in the cytotoxicity of Staphylococcus aureus leukocidins: novel therapeutic targets” (NEW YORK UNIVERSITY, priority 2013, dated 2024)", "key": {"[1]": {"test_system": "CXCR1 and CXCR2 activation on human PMNs", "experiment": "Calcium mobilization on PMNs (Fluo4-AM, flow cytometry)", "type": "cell-based", "settings": "LukE 300 nM", "procedure": "Measurements of calcium mobilization. CXCR1 and CXCR2 activation on human PMNs was evaluated using the fluorescent calcium indicator Fluo4-AM (Invitrogen) as previously described (Alonzo et al., “CCR5 is a Receptor for Staphylococcus aureus Leukotoxin ED,” Nature 493:51-55 (2013), which is hereby incorporated by reference in its entirety). Briefly, cells were incubated for 30 minutes at room temperature with 3 μM of Fluo4-AM in Hank's Balanced Salt Solution (HBSS) followed by three washes in HBSS and equilibration at 37° C. for 30 minutes. Baseline calcium levels were analyzed over time on a flow cytometer for 60 seconds. […] The mean fluorescent intensity over 5-second intervals was plotted for graphical display."}, "CXCR2 [2]": {"molecular_target": "T1, CXCR2 (Homo sapiens, UniProt P25025)", "T1 sequence (P25025 1-360)": "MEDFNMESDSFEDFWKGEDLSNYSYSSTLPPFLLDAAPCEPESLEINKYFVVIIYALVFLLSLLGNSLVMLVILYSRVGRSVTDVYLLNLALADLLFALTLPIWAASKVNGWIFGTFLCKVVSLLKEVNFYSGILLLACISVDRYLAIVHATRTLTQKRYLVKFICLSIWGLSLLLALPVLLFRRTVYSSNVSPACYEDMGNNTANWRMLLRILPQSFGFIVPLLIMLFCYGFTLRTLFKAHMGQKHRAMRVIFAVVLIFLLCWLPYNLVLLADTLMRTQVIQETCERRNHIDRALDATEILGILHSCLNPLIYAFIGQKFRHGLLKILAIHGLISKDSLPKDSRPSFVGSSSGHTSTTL", "experiment": "Pulldown of His-tagged toxin with cell lysates containing HA-tagged CXCR2", "type": "binding", "parameters": "host or cells: HEK293T", "settings": "HA-tagged receptor lysate", "procedure": "(§1) Biochemical assays to examine interactions between LukED and CXCR1 or CXCR2. HEK293T cells were transiently transfected with cDNAs encoding N-terminal HA-tagged CXCR1 or CXCR2 (Missouri S&T cDNA Resource Center) using Lipofectamine 2000 (Invitrogen). Forty-eight hours post transfection, cells were detached with PBS containing 5 mM EDTA and membrane proteins were solubilized (approximately 1×10^6 cells per condition) for 1 hour using lysis buffer (PBS+10mM imidazole (Fisher)+1% Brij 010 (Sigma)+1 mM PMSF (Thermo Scientific)+2× protease inhibitor pellets (Roche)). His-tagged LukE and LukD were incubated with equilibrated Ni-NTA resin (Qiagen) for 2 hours, followed by three washes in lysis buffer. Lysates and resin were then incubated together for 2 hours, followed by three washes in lysis buffer and final resuspension of resin in 45 μl of 4×SDS sample buffer. Protein samples were run on 10% SDS-PAGE gels at 80V, followed by transfer to nitrocellulose membranes (GE) for 1 hour at 1 Amp. Membranes were blocked with PBS+0.01% Tween-20+5% non-fat milk for 1 hour and incubated overnight at 4° C. with either anti-His antibody diluted at 1:3,000 in PBS+0.01% Tween-20 for toxins (Cell Sciences) or anti-HA antibody diluted at 1:1,000 in with PBS+0.01% Tween-20+5% non-fat milk for receptors (Covance). […]"}, "human PMNs [3]": {"test_system": "human PMNs", "experiment": "Binding and competition assays with GFP-LukE/GFP-LukD on PMNs, flow cytometry", "settings": "GFP-LukE 300 nM", "description": "Binding and competition assays. For binding assays, increasing concentrations of GFP-LukE or GFP-LukD were added to 5×10^4 human PMNs and incubated for 30 minutes on ice, then washed once in FACS buffer and fixed for 15 minutes at room temperature followed by flow cytometric analysis. Mean fluorescence intensity (MFI) of GFP^+ cells was measured to establish the toxin concentration required to achieve saturable binding. For remaining competition assays, increasing concentrations of either LukE or LukS-PV were co-incubated with a constant saturable concentration of LukE-GFP (300 nM) for 30 minutes. Cells were washed once in FACS buffer, fixed for 15 minutes in FACS fixing buffer, washed again in FACS buffer, and binding was assessed by flow cytometry. The mean GFP fluorescent intensity is represented as % GFP^+, based on the maximal fluorescence observed upon incubation with 300 nM GFP-LukE. […] Cells were washed once in FACS buffer, fixed for 15 minutes in FACS fixing buffer, washed again in FACS buffer, and binding was assessed by flow cytometry as described above. Results for these assays were depicted graphically using GraphPad PRISM software (version 5.0f, GraphPad PRISM Software, Inc.)."}, "CXCR1 [4]": {"molecular_target": "T2, CXCR1 (Homo sapiens, UniProt P25024)", "T2 sequence (P25024 1-350)": "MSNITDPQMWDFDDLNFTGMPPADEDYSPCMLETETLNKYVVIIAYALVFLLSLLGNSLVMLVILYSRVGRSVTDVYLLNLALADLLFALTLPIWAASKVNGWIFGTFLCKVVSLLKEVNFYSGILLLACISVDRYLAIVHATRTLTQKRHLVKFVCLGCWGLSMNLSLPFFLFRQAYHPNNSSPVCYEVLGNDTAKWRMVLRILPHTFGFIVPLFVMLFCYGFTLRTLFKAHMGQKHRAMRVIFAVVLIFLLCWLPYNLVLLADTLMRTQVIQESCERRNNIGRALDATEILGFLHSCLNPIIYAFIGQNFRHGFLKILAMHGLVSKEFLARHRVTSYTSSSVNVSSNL", "experiment": "Pulldown of His-tagged toxin with cell lysates containing HA-tagged CXCR1", "type": "binding", "parameters": "host or cells: HEK293T", "settings": "HA-tagged receptor lysate", "procedure": "as §1"}, "monocytes within PBMCs": {"test_system": "monocytes within PBMCs", "experiment": "LukED treatment of human PBMCs, CD14/CD3 flow cytometry", "type": "cell-based", "settings": "CCR5+-gated PBMC; LukED 75 nM plus MVC 100 ng/mL", "procedure": "Isolation of PBMCs. Blood was obtained as buffy coats with the consent of de-identified donors from the New York Blood Center. PBMCs were isolated from blood using a Ficoll-Paque PLUS gradient (GE Amersham) and gated on CCR5^+ cells, followed by anti-CD3 and CD14 cell surface staining for lymphocyte and monocyte populations. Cells were then incubated with LukED (75 nM) in the presence or absence of maraviroc (MVC, 100 ng ml-1).\nCCR5 inhibitor and ligands. Maraviroc was obtained through the AIDS Research and Reference Reagent Program, Division of AIDS (NIAID, NIH) and used at a final concentration of 100 ng ml-1.\nFACS analysis. Cell staining was performed as described previously (Alonzo et al., “CCR5 is a Receptor for Staphylococcus aureus Leukotoxin ED,” Nature 493:51-55 (2013), which is hereby incorporated by reference in its entirety). FACS data were obtained using FACSDiva software on a LSRII flow cytometer (BD Biosciences). Data was analyzed using FlowJo software (Treestar).\n(§2) Leukotoxin treatments. HEK293T cells, THP-1, primary human PBMCs and primary murine peritoneal exudate cells were treated with LukE, LukD or LukED as previously described (Alonzo et al., “CCR5 is a Receptor for Staphylococcus aureus Leukotoxin ED,” Nature 493:51-55 (2013), which is hereby incorporated by reference in its entirety). In all experiments 1-2×10^5 cells were seeded into 96-well plates. […]"}, "CCR5^+ cells": {"test_system": "CCR5^+ cells", "settings": "cited from earlier work"}, "human PMNs [5]": {"test_system": "human PMNs", "experiment": "Viability of primary human neutrophils (PMNs) treated with leukotoxins", "type": "cell-based", "settings": "HlgA or hybrid mixed equimolar with HlgB; CellTiter; n=8 donors"}, "CXCR1 [6]": {"molecular_target": "T2, CXCR1", "experiment": "Toxin susceptibility of HEK293T cells transfected with chemokine receptor CXCR1", "type": "cell-based", "parameters": "expressed in transfected cells; host or cells: HEK293T", "settings": "viability (600 nM) or ethidium bromide permeability (1 hr; HlgAB/HlgCB 20 μg/ml)"}, "CXCR2 [7]": {"molecular_target": "T1, CXCR2", "experiment": "Toxin susceptibility of HEK293T cells transfected with chemokine receptor CXCR2", "type": "cell-based", "parameters": "expressed in transfected cells; host or cells: HEK293T", "settings": "viability (600 nM) or ethidium bromide permeability (1 hr; HlgAB/HlgCB 20 μg/ml)", "procedure": "Cell culture conditions and viral transductions. Primary human cells and THP-1 were cultured at 37° C. with 5% CO2 in RPMI supplemented with 10% fetal bovine serum (FBS; Atlanta Biologicals) and penicillin (100 U ml-1) and streptomycin (0.1 mg ml-1) (Mediatech) unless stated otherwise. Overexpression and lentiviral-based knockdown of Cxcr2 or non-target shRNA were performed as previously described (Wan et al., “Cytokine Signals Through PI-3 Kinase Pathway Modulate Th17 Cytokine Production by CCR6+ Human Memory T Cells,” J. Exp. Med. 208:1875-1887 (2011), which is hereby incorporated by reference in its entirety) and maintained in 1.3 μg ml-1 puromycin. HEK293T cells were cultured at 37° C. with 5% CO2 in DMEM (Cellgro) and supplemented as described above.\nas §2"}, "DARC": {"molecular_target": "T3, DARC (Homo sapiens, UniProt Q16570)", "T3 construct": "expressed in transfected cells; host or cells: HEK293T", "T3 sequence (Q16570 1-336)": "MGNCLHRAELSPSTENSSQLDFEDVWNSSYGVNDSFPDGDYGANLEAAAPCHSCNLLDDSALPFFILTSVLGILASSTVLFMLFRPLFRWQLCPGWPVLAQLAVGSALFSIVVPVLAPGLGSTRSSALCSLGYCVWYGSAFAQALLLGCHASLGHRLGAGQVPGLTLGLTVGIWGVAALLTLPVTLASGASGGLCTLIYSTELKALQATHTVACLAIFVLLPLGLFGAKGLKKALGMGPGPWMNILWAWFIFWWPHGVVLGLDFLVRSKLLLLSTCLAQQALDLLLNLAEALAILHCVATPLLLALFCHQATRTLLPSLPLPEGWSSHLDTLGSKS", "experiment": "Toxin susceptibility of HEK293T cells transfected with DARC", "type": "cell-based", "settings": "ethidium bromide permeability (1 hr; HlgAB/HlgCB 20 μg/ml)"}, "human RBCs": {"test_system": "human RBCs", "experiment": "LukED-mediated lysis of human red blood cells", "type": "cell-based", "settings": "n=3 donors"}}, "data": [{"molecule": "LukE: S. aureus Leukocidin E subunit, soluble protein SEQ ID NO:4", "values": [{"measurement": "calcium mobilization on PMNs", "setting": "[1]", "value": "unable to elicit calcium mobilization"}, {"measurement": "complex formation with CXCR2 (pulldown, immunoblot)", "setting": "CXCR2 [2]", "value": "forms complexes with both CXCR1 and CXCR2"}, {"measurement": "competition with GFP-LukE binding to PMNs", "setting": "human PMNs [3]", "value": "competed off"}, {"measurement": "complex formation with CXCR1 (pulldown, immunoblot)", "setting": "CXCR1 [4]", "value": "forms complexes with both CXCR1 and CXCR2"}]}, {"molecule": "Maraviroc [reference compound]", "values": [{"measurement": "protection of monocytes from LukED-mediated death", "setting": "monocytes within PBMCs", "value": "does not protect monocytes from LukED-mediated death"}, {"measurement": "block of LukED mediated killing of CCR5+ cells", "setting": "CCR5^+ cells", "value": "known to block LukED mediated killing of CCR5^+ cells"}]}, {"molecule": "HlgAB: S. aureus γ-hemolysin bicomponent leukotoxin, HlgA (SEQ ID NO:6) plus HlgB (SEQ ID NO:16)", "values": [{"measurement": "cytotoxic activity against hPMNs", "setting": "human PMNs [5]", "value": "exhibited potent cytotoxic activity against hPMNs"}, {"measurement": "susceptibility of CXCR1-transfected HEK293T cells to toxin", "setting": "CXCR1 [6]", "value": "rendered cells susceptible"}, {"measurement": "susceptibility of CXCR2-transfected HEK293T cells to toxin", "setting": "CXCR2 [7]", "value": "rendered cells susceptible"}, {"measurement": "susceptibility of DARC-transfected HEK293T cells to toxin", "setting": "DARC", "value": "rendered cells susceptible"}]}, {"molecule": "HlgA^LukE-DR4/HlgB: HlgA with its DR4 domain swapped with LukE DR4, mixed equimolar with HlgB (protein, left off: small tags and cut ends) chain 1: ENKIEDIGQGAEIIKRTQDITSKRLAITQNIQFDFVKDKKYNKDALVVKMQGFISSRTTYSDLKKYPYIKRMIWPFQYNISLKTKDSNVDLINYLPKNKIDSADVSQKLGYNIGGNFQSAPSIGGSGSFNYSKTISYNQKNYVTEVESQNSKGVKWGVKANSFVTPNGQVSAYDQYLFAQSPNGPTGSAREYFAPDNQLPPLIQSGFNPSFITTLSHERGKGDKSEFEITYGRNMDATYAYVTRHRLAVDRKHDAFKNRNVTVKYEVNWKTHEVKIKSITPK chain 2: EGKITPVSVKKVDDKVTLYKTTATADSDKFKISQILTFNFIKDKSYDKDTLVLKATGNINSGFVKPNPNDYDFSKLYWGAKYNVSISSQSNDSVNVVDYAPKNQNEEFQVQNTLGYTFGGDISISNGLSGGLNGNTAFSETINYKQESYRTTLSRNTNYKNVGWGVEAHKIMNNGWGPYGRDSFHPTYGNELFLAGRQSSAYAGQNFIAQHQMPLLSRSNFNPEFLSVLSHRQDGAKKSKITVTYQREMDLYQIRWNGFYWAGANYKNFKTRTFKSTYEIDWENHKVKLLDTKETENNK", "values": [{"measurement": "cytotoxic activity against hPMNs", "setting": "human PMNs [5]", "value": "exhibited potent cytotoxic activity against hPMNs"}]}, {"molecule": "DARC: purified Duffy antigen receptor for chemokines (OriGene Technologies Inc.) (protein) MGNCLHRAELSPSTENSSQLDFEDVWNSSYGVNDSFPDGDYGANLEAAAPCHSCNLLDDSALPFFILTSVLGILASSTVLFMLFRPLFRWQLCPGWPVLAQLAVGSALFSIVVPVLAPGLGSTRSSALCSLGYCVWYGSAFAQALLLGCHASLGHRLGAGQVPGLTLGLTVGIWGVAALLTLPVTLASGASGGLCTLIYSTELKALQATHTVACLAIFVLLPLGLFGAKGLKKALGMGPGPWMNILWAWFIFWWPHGVVLGLDFLVRSKLLLLSTCLAQQALDLLLNLAEALAILHCVATPLLLALFCHQATRTLLPSLPLPEGWSSHLDTLGSKS", "values": [{"measurement": "inhibition of LukED-mediated lysis of RBCs", "setting": "human RBCs", "value": "fully neutralize LukED-mediated lysis of RBCs"}]}]}
